Assay results reported in the supplement of paper PMC7877785.
± gives the uncertainty stated by the source.

Assay: self-splicing fitness, log relative to wild type (ln ratio); higher = more splicing; Tetrahymena group I intron in knt gene, E. coli kanamycin selection, DiMSum; sequences stand for … in CUCUCU…GGAGGGAAAAGUUAUCAGGCAUGCACCUGGUAGCUAGUCUUUAAACCAAUAGAUUGCAUCGGUUUAAAAGGCAAGACCGUCAAAUUGCGGGAAAGGGGUCAACAGCCGUUCAGUACCAAGUCUCAGGGGAAACUUUGAGAUGGCCUUGCAAAGGGUAUGGUAAUAAGCUGACGGACAUGGUCCUAACCACGCAGCCAAGUCCUAAGUCAACAGAUCUUCUGUUGAUAUGGAUGCAGUUCACAGACUAAAUGUCGGUCGGGGAAGAUGUAUUCUUCUCAUAAGAUAUAGUCGGACCUCUCCUUAAUGGGAGCUAGCGGAUGAAGUGAUGCAACACUGGAGCCGCUGGGAACUAAUUUGUAUGCGAAAGUAUAUUGAUUAGUUUUGGAGUACUCGUGGUCG
Procedure, shortened: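 DiMSum derived fitness as the error-weighted combination of fold changes across replicates, kanamycin versus no kanamycin, normalised to wild type. E. coli BL21(DE3) held the library, which randomised all eight P1ex-region intron nucleotides within the knt kanamycin-resistance gene on pET-22b(+). Six replicate transformations grew overnight at 37°C or 30°C on LB agar with or without 25 μg/mL kanamycin, also containing 100 μg/mL carbenicillin, 50 μM IPTG and 0.2% rhamnose, and pooled colonies were amplicon-sequenced on an Illumina HiSeq 2500.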

| Sequence | self-splicing fitness (ln) (30 °C) | self-splicing fitness (ln) (37 °C) |
| --- | --- | --- |
| AGCAAGCAAUAUUACGGUUG | -3.23 ± 0.17 | -1.32 ± 0.16 |
| UGAAAGCAAUAUUACGAAUU | -1.7 ± 0.26 | -1.66 ± 0.29 |
| CCCAAGCAAUAUUACGAUUC | -3.69 ± 0.25 | -2.1 ± 0.26 |
| ACUCAGCAAUAUUACGUCGU | -1.42 ± 0.07 | -0.573 ± 0.081 |
| CAGUAGCAAUAUUACGCCGG | -0.444 ± 0.21 | -0.309 ± 0.28 |
| AUAUAGCAAUAUUACGGUCC | -2.8 ± 0.25 | -1.44 ± 0.33 |
| GCGAAGCAAUAUUACGCAAA | -3.14 ± 0.22 | -2.07 ± 0.17 |
| CCGGAGCAAUAUUACGUUAC | -3.75 ± 0.2 | -1.67 ± 0.2 |
| UUUGAGCAAUAUUACGAUGA | -0.96 ± 0.19 | -0.161 ± 0.21 |
| GACCAGCAAUAUUACGAUAA | -1.53 ± 0.094 | -1.13 ± 0.1 |
| UGUCAGCAAUAUUACGCCAG | -1.31 ± 0.1 | -0.7 ± 0.12 |
| AAACAGCAAUAUUACGUAAG | -1.23 ± 0.044 | -0.526 ± 0.065 |
| AAUGAGCAAUAUUACGUACG | -3 ± 0.26 | -2.32 ± 0.24 |
| GUCGAGCAAUAUUACGUUAG | -2.95 ± 0.27 | -1.2 ± 0.2 |
| UGCAAGCAAUAUUACGAUGC | -3.55 ± 0.3 | – |
| AAAAAGCAAUAUUACGUCAA | -1.8 ± 0.08 | -0.836 ± 0.073 |
| GUUUAGCAAUAUUACGUUUU | -2.72 ± 0.14 | -1.65 ± 0.18 |
| CCCUAGCAAUAUUACGCUUU | -4.12 ± 0.22 | -2.49 ± 0.18 |
| CCCGAGCAAUAUUACGGUGG | -3.06 ± 0.13 | -3.2 ± 0.18 |
| GGAAAGCAAUAUUACGUACG | -0.792 ± 0.097 | -0.786 ± 0.11 |
| CUAGAGCAAUAUUACGGAGC | – | -3.62 ± 0.34 |
| ACGGAGCAAUAUUACGCGAA | -3.05 ± 0.32 | -1.57 ± 0.23 |
| CCUCAGCAAUAUUACGGGAA | -2.4 ± 0.19 | -3.35 ± 0.3 |
| AUAAAGCAAUAUUACGGUGG | -2.61 ± 0.1 | -1.4 ± 0.12 |
| CCUGAGCAAUAUUACGACUU | -3.87 ± 0.27 | -2.46 ± 0.24 |
| UGUGAGCAAUAUUACGGGCU | -0.671 ± 0.38 | -1.48 ± 0.46 |

| Sequence | self-splicing fitness (ln) (30 °C) | self-splicing fitness (ln) (37 °C) |
| --- | --- | --- |
| AACAAGCAAUAUUACGUGUA | -1.55 ± 0.046 | -1.01 ± 0.054 |
| GGAGAGCAAUAUUACGUUCG | -1.27 ± 0.19 | -0.35 ± 0.23 |
| UGUUAGCAAUAUUACGGCCG | 0.71 ± 0.11 | 0.567 ± 0.17 |
| GCGCAGCAAUAUUACGAGAC | -3.09 ± 0.23 | -1.18 ± 0.18 |
| CCCUAGCAAUAUUACGAGUA | -3.32 ± 0.29 | -2.72 ± 0.33 |
| CGGUAGCAAUAUUACGUACU | -1.36 ± 0.15 | -0.578 ± 0.16 |
| CUCAAGCAAUAUUACGAACC | -2.43 ± 0.39 | -2.38 ± 0.28 |
| UAGCAGCAAUAUUACGAGGG | -1.97 ± 0.21 | -1.96 ± 0.27 |
| UCCCAGCAAUAUUACGUAAU | -2.01 ± 0.068 | -0.749 ± 0.085 |
| UAAUAGCAAUAUUACGCUUU | -3.54 ± 0.44 | -1.5 ± 0.2 |
| GCGCAGCAAUAUUACGGCCA | -0.728 ± 0.12 | -1.03 ± 0.12 |
| CAAGAGCAAUAUUACGAUAA | -3.21 ± 0.22 | -1.79 ± 0.18 |
| CCAAAGCAAUAUUACGAUGU | -2.93 ± 0.1 | -2.1 ± 0.11 |
| AUAUAGCAAUAUUACGAAGC | -2.96 ± 0.31 | – |
| AGGCAGCAAUAUUACGCGGA | -2.08 ± 0.14 | -0.664 ± 0.1 |
| CCACAGCAAUAUUACGCUGA | -2.51 ± 0.12 | -3.16 ± 0.24 |
| GCUAAGCAAUAUUACGGUGC | -3.38 ± 0.22 | -2.6 ± 0.39 |
| CCAAAGCAAUAUUACGUCAU | -3.8 ± 0.2 | -2.87 ± 0.22 |
| GGAGAGCAAUAUUACGCGUU | -2.46 ± 0.28 | -1.82 ± 0.32 |
| UCGCAGCAAUAUUACGCGAG | -2.85 ± 0.15 | -2.56 ± 0.15 |
| ACUAAGCAAUAUUACGGUGA | -1.54 ± 0.093 | -0.619 ± 0.13 |
| AAGCAGCAAUAUUACGAACA | -1.56 ± 0.13 | -0.603 ± 0.13 |
| UACAAGCAAUAUUACGCAAU | -3.44 ± 0.21 | -2.47 ± 0.23 |
| GCGUAGCAAUAUUACGCUUU | -3.68 ± 0.22 | -3.98 ± 0.19 |
| CUGUAGCAAUAUUACGCAGC | -3.17 ± 0.41 | – |
| ACCCAGCAAUAUUACGUUAU | -1.91 ± 0.064 | -1.04 ± 0.081 |

| Sequence | self-splicing fitness (ln) (30 °C) | self-splicing fitness (ln) (37 °C) |
| --- | --- | --- |
| ACUCAGCAAUAUUACGGACU | 0.409 ± 0.086 | -0.57 ± 0.087 |
| GUGGAGCAAUAUUACGCCGU | 0.631 ± 0.42 | -1.15 ± 0.37 |
| UUGAAGCAAUAUUACGCGAA | -0.789 ± 0.08 | -0.585 ± 0.093 |
| GCCAAGCAAUAUUACGAUCA | -3.6 ± 0.21 | -1.2 ± 0.11 |
| UGCUAGCAAUAUUACGUUGG | -3.3 ± 0.19 | -2.49 ± 0.2 |
| CAGAAGCAAUAUUACGUCAG | -1.15 ± 0.056 | -0.204 ± 0.078 |
| GACAAGCAAUAUUACGUGGC | -4.6 ± 0.32 | -1.61 ± 0.11 |
| UGUAAGCAAUAUUACGAGGC | -1.16 ± 0.26 | -1.17 ± 0.41 |
| UGGUAGCAAUAUUACGAGGG | – | -3.44 ± 0.33 |
| ACGGAGCAAUAUUACGGAAA | – | -2.15 ± 0.24 |
| UAUAAGCAAUAUUACGGCAU | -0.623 ± 0.077 | -0.223 ± 0.098 |
| ACUUAGCAAUAUUACGCCUG | -1.12 ± 0.18 | -0.484 ± 0.19 |
| GGGCAGCAAUAUUACGACCU | -1.88 ± 0.28 | -1.26 ± 0.44 |
| AUGCAGCAAUAUUACGAUGC | -2.06 ± 0.14 | -0.432 ± 0.14 |
| CUCCAGCAAUAUUACGGAGA | -3.61 ± 0.27 | -2.21 ± 0.21 |
| AUACAGCAAUAUUACGAUCU | -0.478 ± 0.077 | -0.0165 ± 0.087 |
| GUCCAGCAAUAUUACGUAGA | -0.646 ± 0.064 | -0.201 ± 0.086 |
| AAGCAGCAAUAUUACGAACU | -0.292 ± 0.07 | -1 ± 0.069 |
| ACCUAGCAAUAUUACGGGAA | -1.62 ± 0.11 | -0.345 ± 0.11 |
| GAGUAGCAAUAUUACGCAAA | -2.45 ± 0.44 | -1.63 ± 0.22 |
| GGCUAGCAAUAUUACGGACU | -0.601 ± 0.081 | 0.198 ± 0.098 |
| GGACAGCAAUAUUACGUGUC | -3.52 ± 0.28 | -2.68 ± 0.23 |
| GAGGAGCAAUAUUACGCUCG | -1.49 ± 0.14 | -1.26 ± 0.22 |
| GGGCAGCAAUAUUACGGUUA | -0.537 ± 0.097 | -0.339 ± 0.089 |
| ACAAAGCAAUAUUACGACUC | -0.72 ± 0.11 | -0.304 ± 0.12 |
